Literature values, collected in publication PMC3583350.

Target: FcεRIα ECD (Homo sapiens) (UniProt P12319)
Chain of UniProt P12319 (P12319 26-205): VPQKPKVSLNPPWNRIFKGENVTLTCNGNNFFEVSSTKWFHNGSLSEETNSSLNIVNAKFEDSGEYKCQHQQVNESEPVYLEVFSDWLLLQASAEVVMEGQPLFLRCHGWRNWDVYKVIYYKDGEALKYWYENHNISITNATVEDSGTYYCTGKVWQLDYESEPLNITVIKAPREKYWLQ

Kd: 1 nM
Substance: IgE-Fc Fc (from UniProt P01854)
